Source: the supplement of paper PMC9170038

System: MS2 coat protein
Assay: apparent KD of MS2 coat protein; designed switch direction (-1 OFF switch, 1 ON switch): -1; higher = weaker reporter binding
Method in brief: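 The buffer was Tris-HCl pH 7.5 with KCl, MgCl2, BSA, DTT, tRNA and Tween-20. In it, SNAP-549-labelled MS2 coat protein was titrated in doubling steps from 0.7 or 1.5 nM to 3 µM over chip-bound RNA switches transcribed by stalled E. coli RNA polymerase on Illumina chips. Apparent KD is the per-design median over clusters of curve fits to normalised fluorescence.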

[1] = input ligand: microRNA oligo, concentration not stated
[2] = Eterna round: R95, input ligand: microRNA oligo, concentration not stated
[3] = Eterna round: R95, input ligand: FMN 200 uM
[4] = Eterna round: R95, input ligand: none

| Sequence | apparent KD of MS2 coat protein (input ligand: FMN 200 uM) | apparent KD of MS2 coat protein (input ligand: none) | apparent KD of MS2 coat protein [1] | apparent KD of MS2 coat protein [2] | apparent KD of MS2 coat protein [3] | apparent KD of MS2 coat protein [4] |
| --- | --- | --- | --- | --- | --- | --- |
| UGCCAGAAAGGAUAUACAUGAGGAUCACCCAUGUAACCCUAUGUGAGAGUUCCCGUUUGUAGAAGGUUCUCGUA [EX3 C.22] (Eterna round: R97, puzzle: Exclusion 3) | 21.3 nM | 18.2 nM |  |  |  |  |
| GAGAGAGCCAUAGGAUAUGCCCGCCCGCUUGCGGCAGAAGGAUGUUGACAUGAGGAUCACCCAUGUGGAUCGCCCAUGUUUGUG [All by luck] (Eterna round: R96, puzzle: Exclusion NG 1) | 604 nM | 286 nM | 191 nM |  |  |  |
| GUGUACAGAGGAUAUACAAUAGGAGUUACGAAAGUAACUUCACAUGAGGAUCACCCAUGUAGAAGGCUGUACAC [Dot plot directed v8] (puzzle: Exclusion 2) |  |  |  | 17.7 nM |  |  |
| GUACAACAUGAGGAUCACCCAUGUGAGGAUAUGCGAAUUUCAUCAAAAGAUGAAAUUUGCAGAAGGCACUGUAC [Omei Ex1 A10] (Eterna round: R97, puzzle: Exclusion 1) | 19.2 nM | 20.8 nM |  |  |  |  |
| AGUUUACAUGAGGAUCACCCAUGUGAGGAUAUGGAUUCGCUGGCCGUAGCCAGUGGAUCCAGAAGGCGCGUGAU [JL-ex1-4.29] (Eterna round: R97, puzzle: Exclusion 1) | 186 nM | 101 nM |  |  |  |  |
| GGUCCACGAGGAUAUCGAUUUUAGUACAUGAGGAUCACCCAUGUUGUCCAGGUUUCGAUUCGAGAAGGCGUGGGCC [LRO-Ex5-03] (puzzle: Exclusion 5) |  |  |  | 20.3 nM |  |  |
| GCGCAGGUAGGAUAUCGAGCUAAGAACAUGAGGAUCACCCAUGUGUUCGGUAGCCAACUUCGAGAAGGACCAAAUA [Ceati] (puzzle: Exclusion 5) |  |  |  | 11.4 nM | 23.9 nM | 14.9 nM |
| AAACAAACGGGAGGAUAUCGACAUAUUCAACUGCGAGAAGGCCCAAAAGACAUGAGGAUCACCCAUGUAAACCGGGUGAGAAAU [Rimabi] (Eterna round: R96, puzzle: Exclusion NG 1) | 934 nM | 215 nM | 185 nM |  |  |  |
| GAUGGUCGAGGAUAUGCACCAGGGUCGACCUACUAGCGAAGACAUGAGGAUCACCCAUGUAGAAGGUGGCGGUU [Eternabot (L2) Solution 75] (Eterna round: R97, puzzle: Exclusion 2) | 73.9 nM | 82.4 nM |  |  |  |  |
| GACUAGGCAGGAUAUACAUGAGGAUCACCCAUGUGUCUGCGUUAAGCACGUGAAGACGGUAGAAGGGCCUUCAC [ChP 13.04.2015 #17] (puzzle: Exclusion 3) |  |  |  | 10.3 nM |  |  |
| AUGUUGUCAGGAUAUCUUACAUAACAAUCGUUGUUACCAUUGGAGAAGGGACAUGAGGAUCACCCAUGUUAACC [tap-tap-tappy45] (Eterna round: R97, puzzle: Exclusion 4) | 23.9 nM | 21.5 nM |  |  |  |  |
| GCAGGUCGAGGAUAUACAUGAGGAUCACCCAUGUGGUCACGUGACGAUAGUCACGAAUGUAGAAGGUGACCUGC [E3/3-B2] (Eterna round: R97, puzzle: Exclusion 3) | 3.13 nM | 207 nM |  |  |  |  |
| AUUGAUAGCACAGGAUAUUGAGAUUUGAAUUGACAAGAAGGGUGUACAUGAGGAUCACCCAUGUAAUGGUUGAGUGGUUGAUUA [JR_ExcNG1_Sub003] (Eterna round: R96, puzzle: Exclusion NG 1) | 953 nM | 1140 nM | 829 nM |  |  |  |
| UAUUAACAAGUAAGAUCCCACAUGAGGAUCACCCAUGUGCUCGUCUUAUAAGGUACUGUGACGAAAGUCACGGUACC [Dup of Eli's R95 Sensor 3, v1 - 87] (Eterna round: R97, puzzle: Sensor, turn-off variant 1) | 16.3 nM | 16.5 nM |  |  |  |  |
| GCCGGAUUUGUGAGGAUAUGCCUAUGGAUACAUAGGCAGAAGGCACAUGAGGAUCACCCAUGUACCUCACCGGC [JL-BMX4-4.23 Eli mod] (Eterna round: R97, puzzle: Brourd's mod of Exclusion 4) | 141 nM | 21.4 nM |  |  |  |  |
| CGCAGACGAGGAUAUAGAUGGAAUGACAUGAGGAUCACCCAUGUGAUCGAUCUAUUGGGUUUAGAAGGUGUCUGCG [JR_Ex5_Sub046] (Eterna round: R97, puzzle: Exclusion 5) | 14.4 nM | 15.2 nM |  |  |  |  |
| GGGUGACAUGAGGAUCACCCAUGUCAGGAUAUGAUUCUGCUUGGGAAACCGAGUAGAAUCAGAAGGGACAUCCC (Eterna round: R97, puzzle: Exclusion 1) | 324 nM | 54.3 nM |  |  |  |  |
| GUCAGCUCGUGAGGAUAUGAACAUGAGGAUCACCCAUGUAAGAUCAAGCUGCUUCGGCAGCAAGUUCAGAAGGCACGAGCUGAU [ENG2/10-A2] (Eterna round: R96, puzzle: Exclusion NG 2) | 251 nM | 172 nM | 134 nM |  |  |  |

| Sequence | apparent KD of MS2 coat protein (input ligand: FMN 200 uM) | apparent KD of MS2 coat protein (input ligand: none) | apparent KD of MS2 coat protein [1] | apparent KD of MS2 coat protein [2] | apparent KD of MS2 coat protein [3] | apparent KD of MS2 coat protein [4] |
| --- | --- | --- | --- | --- | --- | --- |
| CCAGGCAAUUCCACUUGUAACAUGAGGAUCACCCAUGUGACCUGGUAUCAAGGCAGCUCGUCAUCCCACCAUAUUCA [Eternabot (L1) Solution 23] (Eterna round: R97, puzzle: Sensor, turn-off variant 1) | 18.8 nM | 18.4 nM |  |  |  |  |
| GGCCCUAAGGUCAGAUCCACAAGCUUUUUGCUCGUUUUAACAUGAGGAUCACCCAUGUCUAGUGGAUUUGAUCCUCU [Sensor v3, turn-off variant 2 (MOD of Indiso v.8)] (puzzle: Sensor v3, turn-off variant 2) |  |  |  | 9.69 nM | 27.9 nM | 33.5 nM |
| GGUACUAACACGAGAGUGUUAGUACUAUAAGCUUGUGUUACAUGAGGAUCACCCAUGUCCUCAUAGGCUCGUCUUAA [Mat - Sensor v3 - Turn-off var 2 - D81] (puzzle: Sensor v3, turn-off variant 2) |  |  |  | 61 nM | 82.4 nM | 82.4 nM |
| AAUUUGCAAGCGAGAUCCCACAUGAGGAUCACCCAUGUGCUCGUCUUAUAAGGUACUGUGACGAUAGUCACGGUACC [Mat - Sensor, turn-off var - Eli Mod - D93] (Eterna round: R97, puzzle: Sensor, turn-off variant 1) | 14.1 nM | 14.3 nM |  |  |  |  |
| GAAAAGGUAGGAUAUACGAAAAAAAAGGGUAGAAAAAAAACACAUGAGGAUCACCCAUGUAGAAGGACCAAAAU [salish99_ex2_r3_051] (puzzle: Exclusion 2) |  |  |  | 29.2 nM | 76.9 nM | 26.7 nM |
| CCUCUACAUGAGGAUCACCCAUGUGAGGAUAUCUCGGAGCAGCCAAUUAAAGCGCUCCAGAGAAGGCACGUGUA [Inesraar] (puzzle: Exclusion 1) |  |  |  | 19.4 nM |  |  |
| CUGAUGUCAGGAUAUCAGAAAAGGCGCAAGGACACGCCAAAUGAGAAGGGACAUGAGGAUCACCCAUGUAAAAC [Orata] (puzzle: Exclusion 4) |  |  |  | 20.8 nM | 107 nM | 18.1 nM |
| UCUUAUUGCAAGGAUAUGCAAAUUAUUAUUAAAGCAGAAGGUGCAACAUGAGGAUCACCCAUGUUUCCGGGAAA [JR_E6_Sub040] (puzzle: Exclusion 6) |  |  |  | 25 nM |  |  |
| GAUUAUGCGAGCUUUAGGGACAUGAGGAUCACCCAUGUUCGUCUUAUUGGUCUGGGUACACUGACAUACCUAAAUCU [JMF 72] (puzzle: Sensor v3, turn-off variant 1) |  |  |  | 42.2 nM | 33.9 nM | 32.4 nM |
| AUCAUGUAAGGAUAUCUGACAUGUGACGAAAGUCACUGUUCAGAGAAGGUACAUGAGGAUCACCCAUGUAGAAC [Ex4-3: 43] (puzzle: Exclusion 4) |  |  |  | 62.8 nM |  |  |
| UCUCGCGGGCAAGGAUAUCCCACGCUGUUCUGGCCCGUGUUUGUUACAUGAGGAUCACCCAUGUGGGAGAAGGUGCACCAGGGC [Design 42] (Eterna round: R96, puzzle: Exclusion NG 2) | 218 nM | 168 nM | 96.3 nM |  |  |  |
| UAGAUGGGAGGAUAUACGUAGAUGCAGGUUCGUGUGGUGCUACAUGAGGAUCACCCAUGUAGAAGGCCCGUCUU [JL-ex2-2.29 Mayanne mod] (Eterna round: R96, puzzle: Exclusion 2) | 69.4 nM | 18.4 nM | 14.1 nM |  |  |  |
| UCCAGUGAAGGAUAUGCACCAGGCAAUUGUAGGGUACUCAUACAUGAGGAUCACCCAUGUAGAAGGUCGCAGGC [Eternabot (L2) Solution 78] (Eterna round: R97, puzzle: Exclusion 2) | 32.4 nM |  |  |  |  |  |
| CAAACCAGAGGAUAUGCGCAUAGAUCAGACUUUGUUUCUUAACAUGAGGAUCACCCAUGUAGAAGGCUGUAAAA [Ex2 #73] (Eterna round: R97, puzzle: Exclusion 2) | 18.4 nM | 17.6 nM |  |  |  |  |
| UAGAUGGGAGGAUAUACGUAGAUGCAGGUUCGUGUGGUGCUACAUGAGGAUCACCCAUGUAGAAGGCCCGUCUU [JL-ex2-2.29 Mayanne mod] (puzzle: Exclusion 2) |  |  |  | 13.6 nM |  |  |
| UUGUUAUAUGUAGGAUAUGCGUAUUAUUAUUAUGCAGAAGGACAUGAGGAUCACCCAUGUGUAUUAUUAUUAUAUAUUAUAUAU [Title] (Eterna round: R96, puzzle: Exclusion NG 1) | 41.3 nM | 21.1 nM | 15.5 nM |  |  |  |
| CCUUAGUUAGGAUAUAUUAAGGCCUCUGUGAGCGCAGGGCAAUAGAAGGAACAUGAGGAUCACCCAUGUAUGGA [Eternabot (L2) Solution 98] (Eterna round: R97, puzzle: Exclusion 4) | 38.6 nM | 29.7 nM |  |  |  |  |
